In publication PMC8385062, “Deciphering ion transport and ATPase coupling in the intersubunit tunnel of KdpFABC” (Nature Communications, 2021):
Positions count from the first letter of the chain named. Numbers in names are those of the source.

B1: KdpFABC (nucleotide / vanadate rows, site in KdpB) (Escherichia coli K-12) (protein)
chain: MSRKQLALFEPTLVVQALKEAVKKLNPQAQWRNPVMFIVWIGSLLTTCISIAMASGAMPGNALFSAAISGWLWITVLFANFAEALAEGRSKAQANSLKGVKKTAFARKLREPKYGAAADKVPADQLRKGDIVLVEAGDIIPCDGEVIEGGASVDESAITGESAPVIRESGGDFASVTGGTRILSDWLVIECSVNPGETFLDRMIAMVEGAQRRKTPNEIALTILLIALTIVFLLATATLWPFSAWGGNAVSVTVLVALLVCLIPTTIGGLLSAIGVAGMSRMLGANVIATSGRAVEAAGDVDVLLLDKTGTITLGNRQASEFIPAQGVDEKTLADAAQLASLADETPEGRSIVILAKQRFNLRERDVQSLHATFVPFTAQSRMSGINIDNRMIRKGSVDAIRRHVEANGGHFPTDVDQKVDQVARQGATPLVVVEGSRVLGVIALKDIVKGGIKERFAQLRKMGIKTVMITGDNRLTAAAIAAEAGVDDFLAEATPEAKLALIRQYQAEGRLVAMTGDGTNDAPALAQADVAVAMNSGTQAAKEAGNMVDLDSNPTKLIEVVHIGKQMLMTRGSLTTFSIANDVAKYFAIIPAAFAATYPQLNALNIMCLHSPDSAILSAVIFNALIIVFLIPLALKGVSYKPLTASAMLRRNLWIYGLGGLLVPFIGIKVIDLLLTVCGLV
B2: KdpFABC (nucleotide / vanadate rows, site in KdpB) (Escherichia coli K-12; F232A) (protein)
chain: B1 chain with F232A

Substrate: Nc1ncnc2c1ncn2[C@@H]1O[C@H](COP(=O)(O)OP(=O)(O)OP(=O)(O)O)[C@@H](O)[C@H]1O
Test: purified protein
Conditions: 1 mM KCl, 37 °C

Protein	Km [µM]	Km (K+-uncoupled variant) [µM]
B1	150	
B2		100
